Measured values from publication doi:10.1101/2020.04.26.062372.

Experiments:
[1] = biological target: GLP-1R-SmBiT (glucagon-like peptide-1 receptor tagged at the C-terminus with SmBiT) (UniProt P43220); experiment: split reporter
[2] = biological target: GIPR-SmBiT (glucose-dependent insulinotropic polypeptide receptor tagged at the C-terminus with SmBiT) (UniProt P48546); experiment: split reporter
UniProt P48546, sequence (P48546 22-466): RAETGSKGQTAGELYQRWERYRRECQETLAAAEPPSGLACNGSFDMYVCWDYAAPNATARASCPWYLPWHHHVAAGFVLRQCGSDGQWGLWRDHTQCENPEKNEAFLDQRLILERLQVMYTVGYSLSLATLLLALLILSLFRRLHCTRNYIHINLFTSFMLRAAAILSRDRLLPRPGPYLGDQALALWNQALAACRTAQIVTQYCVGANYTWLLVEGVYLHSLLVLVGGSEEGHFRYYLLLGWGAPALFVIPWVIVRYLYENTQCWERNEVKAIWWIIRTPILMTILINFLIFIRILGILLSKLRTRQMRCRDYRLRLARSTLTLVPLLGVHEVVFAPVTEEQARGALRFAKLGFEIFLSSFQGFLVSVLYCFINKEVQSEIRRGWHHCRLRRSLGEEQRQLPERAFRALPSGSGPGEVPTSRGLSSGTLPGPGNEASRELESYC

UniProt P43220, sequence (P43220 24-463): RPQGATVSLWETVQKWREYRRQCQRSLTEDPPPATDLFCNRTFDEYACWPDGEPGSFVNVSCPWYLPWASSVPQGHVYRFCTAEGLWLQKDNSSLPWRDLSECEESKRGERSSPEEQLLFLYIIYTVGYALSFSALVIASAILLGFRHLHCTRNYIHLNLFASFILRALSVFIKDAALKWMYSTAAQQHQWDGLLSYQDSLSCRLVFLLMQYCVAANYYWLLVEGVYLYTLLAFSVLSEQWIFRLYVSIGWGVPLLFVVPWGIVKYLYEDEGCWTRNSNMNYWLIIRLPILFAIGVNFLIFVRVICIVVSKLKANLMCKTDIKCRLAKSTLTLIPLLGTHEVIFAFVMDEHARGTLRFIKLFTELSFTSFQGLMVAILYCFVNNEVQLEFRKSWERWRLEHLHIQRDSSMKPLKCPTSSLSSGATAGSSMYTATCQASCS

LgBiT-mini-Gs
t1/2 of ligand-induced recruitment [1]: 1.5 min
t1/2 of ligand-induced recruitment [2]: 7.1 min
